Test results: patent US20210388105A1 (ELPISCIENCE SUZHOU BIOPHARMA, published 2021)
One block for each binder: values may come before it.

Experiments:
[1] = target: T1, cynomolgus CD39 (full length, on CHOK1-cynoCD39 cells) (cynomolgus monkey, UniProt A0A7N9DGH8 1-510); assay: FACS, CHOK1-cynoCD39 cells
T1 construct: whole, on cells; also called cCD39
T1 sequence: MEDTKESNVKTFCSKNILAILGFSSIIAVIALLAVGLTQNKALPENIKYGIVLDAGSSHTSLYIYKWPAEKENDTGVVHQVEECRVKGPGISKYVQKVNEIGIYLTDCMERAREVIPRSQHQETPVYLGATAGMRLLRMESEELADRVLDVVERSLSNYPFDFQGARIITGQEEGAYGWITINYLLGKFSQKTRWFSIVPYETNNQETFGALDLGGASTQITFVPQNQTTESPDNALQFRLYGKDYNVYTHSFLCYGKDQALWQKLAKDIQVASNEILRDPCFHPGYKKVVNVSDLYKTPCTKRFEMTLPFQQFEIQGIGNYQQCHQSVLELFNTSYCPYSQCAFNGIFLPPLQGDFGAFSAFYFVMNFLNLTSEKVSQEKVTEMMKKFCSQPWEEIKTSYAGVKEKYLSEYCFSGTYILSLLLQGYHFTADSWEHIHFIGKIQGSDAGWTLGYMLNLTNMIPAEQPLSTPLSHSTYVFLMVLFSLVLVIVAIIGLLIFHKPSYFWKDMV
From the text: (§1) FACS were used to determine binding of the antibodies to cell lines expressing CD39 naturally (SK-MEL-28) or recombinantly (CHOK1-hCD39, CHOK1-cynoCD39, and CHOK1-mCD39), or with cells lacking CD39 expression (CHOK1-blank) as a negative control.
(§2) CHOK1-hCD39, CHOK1-cCD39, CHOK1-mCD39 and CHOK1-blank cells were maintained in culture medium according to ATCC procedure. Cells were collected and re-suspended in blocking buffer at a density of 3×10⁶ cells/ml. Cells were transferred to 96 well FACS plates at 100 μl/well (3×10⁵ cells/well), the plates were centrifuged and washed twice with FACS buffer (PBS, 1% FBS, 0.05% Tween-20). 4-folds serial dilution of anti-CD39 antibodies were prepared in FACS buffer starting from 30 μg/ml. Reference antibody 9-8B and mouse/human control IgG were used as positive and negative controls, respectively. Cells were re-suspended in 100 μL/well diluted antibodies, and the plates were incubated at 4° C. for 60 min. […] The plates were washed with FACS buffer, and cells were re-suspended in 100 μL/well of PBS. Cells were then analyzed with FACSVerse™ and mean fluorescence intensity were determined. Full binding curves were generated on the CD39 expressing cells by testing a range of antibody concentrations. Apparent affinity was determined for each antibody using Prism software.

[2] = target: T2, mouse CD39 (full length, on CHOK1-mCD39 cells) (mouse, UniProt P55772 1-510); assay: FACS, CHOK1-mCD39 cells
T2 construct: whole, on cells
T2 sequence (looked up): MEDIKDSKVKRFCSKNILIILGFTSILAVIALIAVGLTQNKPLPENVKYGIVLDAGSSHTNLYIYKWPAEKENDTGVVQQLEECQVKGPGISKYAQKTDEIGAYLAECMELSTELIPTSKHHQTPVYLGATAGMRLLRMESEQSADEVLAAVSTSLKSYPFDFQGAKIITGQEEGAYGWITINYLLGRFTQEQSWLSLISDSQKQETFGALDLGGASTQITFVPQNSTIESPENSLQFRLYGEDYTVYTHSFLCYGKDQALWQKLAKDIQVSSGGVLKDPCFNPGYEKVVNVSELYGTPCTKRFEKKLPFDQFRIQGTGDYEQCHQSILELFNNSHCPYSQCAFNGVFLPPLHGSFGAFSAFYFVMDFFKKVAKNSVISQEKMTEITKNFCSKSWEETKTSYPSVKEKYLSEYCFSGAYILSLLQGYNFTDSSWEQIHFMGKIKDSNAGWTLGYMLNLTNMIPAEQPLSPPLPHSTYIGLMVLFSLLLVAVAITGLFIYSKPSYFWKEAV
From the text: as §1, §2

[3] = target: T3, 6×His tagged human CD39 (human, UniProt P49961 38-478); assay: Biacore SPR, antibody captured on CM5 chip, His-tagged CD39 as analyte
T3 construct: Analyte in the Biacore assay
T3 sequence: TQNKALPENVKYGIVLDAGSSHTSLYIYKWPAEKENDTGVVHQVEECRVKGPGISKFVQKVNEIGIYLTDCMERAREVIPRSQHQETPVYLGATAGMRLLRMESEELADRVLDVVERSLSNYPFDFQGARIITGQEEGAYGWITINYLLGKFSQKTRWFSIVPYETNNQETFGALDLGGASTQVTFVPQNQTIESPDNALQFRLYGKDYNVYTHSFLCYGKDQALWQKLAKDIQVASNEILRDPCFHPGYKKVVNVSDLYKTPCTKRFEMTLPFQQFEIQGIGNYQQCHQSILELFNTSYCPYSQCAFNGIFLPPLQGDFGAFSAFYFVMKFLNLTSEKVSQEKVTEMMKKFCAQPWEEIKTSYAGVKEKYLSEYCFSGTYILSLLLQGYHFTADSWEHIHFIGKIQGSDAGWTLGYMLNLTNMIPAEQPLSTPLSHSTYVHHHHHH
Description: In particular, humanized antibodies hu23.H5L5, hu23.201, hu14.H1L1 and reference antibodies 1394 and T895 were characterized for binding affinity against human CD39 using Biacore (GE). Briefly the antibodies to be tested were captured to CM5 chip (GE) using Human Antibody Capture Kit (GE). The antigen of 6×His tagged human CD39 was serially diluted for multiple doses and injected at 30 μl/min for 180s. Buffer flow was maintained for dissociation of 400s. 3 M MgCl2 was used for chip regeneration. The association and dissociation curves were fit with 1:1 binding model, and the Ka/Kd/KD values for each antibody were calculated.

B1: mAb14 (antibody, V domains shown)
VH: EVKLEESGGGLVQPGGSMKLSCVASGFTFSKYWMNWVRQSPEKGLEWVAEIRLKSNKYGTHYAESVKGRFTISRDDSKNNVYLQMNNLRPEDTGIYYCTTQLDLYWFFDVWGAGTTVTVSS
VL: DIVMTQSPAILSVTPGDRVSLSCRASQSISDYLHWYQQKSHESPRLLIKYASQSISGIPSRFSGSGSGSNFTLSINSVEPEDVGVYFCQNGHSLPLTFGAGTKLELR
notes: mouse hybridoma antibody
EC50 [1]: 3.4 nM
binding result [2]: no binding (tested: 30 µg/ml highest concentration)

B3: Antibody 9-8B (antibody, V domains shown)
VH: QIQLVQSGPELKKPGETVKISCKASGYTFTHYGMNWVKQAPGKGLKWMGWINTYTGELTYADDFKGRFAFSLETSASTAYLQINNLKNEDTATYFCARRAYYRYDYVMDYWGQGTSVTVSS
VL: DIVMTQSQKFMSTSVGDRVSVTCKASHNVGTNVAWYQQKPGQSPKALIYSASYRYSGVPGRFTGSGSGTDFTLTISNVQSEDLAEYFCHQYNNYPYTFGGGTKLEIK
EC50 [1]: 1.6 nM
binding result [2]: no binding (tested: 30 µg/ml highest concentration)

Results, then the binder that gave them:

Kd [3]: 19.5 nM
koff [3]: 0.0016 s⁻¹
kon [3]: 82200 M⁻¹ s⁻¹
B2: hu23.H5L5 (antibody, V domains shown)
VH: QVQLVQSGAEVKKPGASVKVSCKASGYNLKDTFLHWVRQAPGQGLEWMGRIDPANGNIKYDPKFQGRVTITADTSANTAYMELISLRSEDTAVYYCANSPYYYGSGYRIFDVWGQGTTVTVSS
VL: QIVLTQSPATLSLSPGERATLSCSAFSSVNYMHWYQQKPGQAPRLLIYTTSNLASGIPTRFSGSGSGTSYTLTISSLEPEDFAVYYCQQRSTYPFTFGQGTKLEIK
notes: humanized c23

Kd [3]: 1040 nM
koff [3]: 0.139 s⁻¹
kon [3]: 133000 M⁻¹ s⁻¹
B4: Antibody T895 (antibody, V domains shown)
VH: EVQLQQSGPELVKPGASVKMSCKASGYTFTDYNMHWVKQSHGRTLEWIGYIVPLNGGSTFNQKFKGRATLTVNTSSRTAYMELRSLTSEDSAAYYCARGGTRFAYWGQGTLVTVSA
VL: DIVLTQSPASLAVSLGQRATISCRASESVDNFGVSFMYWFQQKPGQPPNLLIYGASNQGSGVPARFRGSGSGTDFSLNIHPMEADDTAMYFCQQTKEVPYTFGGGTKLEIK
notes: also called 31895
